Assay results as given in PMC11930087, “Mobility of four structural regions drives isoform-specific properties of photoenzyme LPOR in plants” (The Journal of Biological Chemistry, 2025).

Target: the molecule itself
Assay: negative-stain transmission electron microscopy; reaction mixtures of 5 μM Pchlide, 15 μM AtPORB, 200 μM NADPH and either 100 μM lowMGDG lipid mixture (2.5 mol% MGDG, 47.5 mol% PG, 50 mol% DGDG) or OPT lipids; filaments seen

B1: light-dependent protochlorophyllide oxidoreductase B from Arabidopsis thaliana (enzyme)
chain: QTAATSSPTVTKSVDGKKTLRKGNVVVTGASSGLGLATAKALAETGKWNVIMACRDFLKAERAAKSVGMPKDSYTVMHLDLASLDSVRQFVDNFRRTETPLDVLVCNAAVYFPTAKEPTYSAEGFELSVATNHLGHFLLARLLLDDLKKSDYPSKRLIIVGSITGNTNTLAGNVPPKANLGDLRGLAGGLNGLNSSAMIDGGDFDGAKAYKDSKVCNMLTMQEFHRRFHEETGVTFASLYPGCIASTGLFREHIPLFRALFPPFQKYITKGYVSETESGKRLAQVVSDPSLTKSGVYWSWNNASASFENQLSEEASDVEKARKVWEISEKLVGLA
notes: LPOR B of Arabidopsis thaliana, P21218; probably without the transit peptide, as the constructs cloned here; In the assays it stood with Pchlide, NADPH and lipids; also called AtPORB; LPOR
Does B1 bind?
Result: binds
